The values below come from patent publication US9944718B2, “ADAM22 for use as a prognostic variable, and target for therapy, of a metastatic breast cancer disease” (Royal College of Surgeons in Ireland, priority 2011, dated 2018).

Peptide text beside a SMILES is read from it.

Data set [1] can be described thus: Toxicity study of LGI1 peptide mimetic in vivo. The following applies: preliminary in vivo studies; FIG. 1F.
Protocol: LGI1 mimetic was delivered by daily intraperitoneal injection to C57/bl6 mice at high (100 ug/kg/day), medium (10 ug/kg/day) and low dose (1 ug/kg/day) for 30 days.
In the next data set the test system is LetR cells. Kind of data set: Cellular differentiation in 3D culture, LetR cells. The class given is cell-based. Particulars: LetR cells treated with LGI1; n=3; FIG. 1D.
Data set [2] relates to endocrine resistant LetR cells. Kind of data set: Xenograft model of endocrine resistance. Particulars: FIG. 1G. The data set is classed as in vivo. From the text:
As ADAM22 expression has previously only been described in the central nervous system, a therapeutic directed against systemic ADAM22 has the potential to be highly specific for the breast and have low toxicity. The neuronal protein, LGI1 serves as a specific extracellular ligand for ADAM22^4. […] The Applicant has shown that treatment with recombinant LGI1 reduced cellular migration and restored differentiation in endocrine resistant cells in a similar manner to that observed with knockdown of ADAM22 (FIGS. 1C and D). A 22 amino acid peptide mimetic of LGI1 with a simple hairpin structure against the active binding domain of ADAM22 has been developed. […] In vivo studies have been undertaken to assess the efficacy of the LGI1 mimetic in reducing breast cancer burden in endocrine resistant breast cancer. […] This has significant advantage over previous methods described of detecting metastatic disease^9.

The subject of data set [3] is endocrine resistant LetR cells. Kind of data set: Motility assay, LetR cells. Particulars: 5 nM, FIG. 1C/1E. The class given is cell-based. From the text: (§1) • For cell culture use Minimum Essential Medium-Eagle (EMEM; BioWhittaker, Product No. 12-611Q) containing the following supplements (=EMEM Complete Medium): 10% fetal calf serum (BioWhittaker, Product No. 14-503F), 1X penicillin/streptomycin solution (BioWhittaker, Product No. 17-602E), 1% L-glutamine (BioWhittaker, Product No. 17-605E), 1% non-essential amino acids (BioWhittaker, Product No. 13-114E) and 1% sodium pyruvate (BioWhittaker, Product No. 13-115E). • Split cells when they reach 60-80% confluency (every 2-3 days), diluting 1:5 to 1:10. • For cell motility, harvest cells with trypsin-versene mixture (BioWhittaker, Product No. 17-161F) and dilute into EMEM Complete Medium (warmed to 37° C.). For cells cultured in a T-75 flask, wash cells with 3 ml of trypsin. Add another 3 ml of trypsin and aspirate 2 ml. Allow cells to detach by incubating flask at 37° C. for 5 minutes and then add 9 ml of EMEM Complete Medium and centrifuge cells at 400×g for 5 minutes at room temperature. • Wash 3× with Serum-Free Culture Medium (warmed to 37° C.) (see Procedure section). • Adjust cell density to 10^4 cells/ml in EMEM serum-free medium and add 50 μl of the cell suspension to each well of a 96-well microplate (=500 cells/well). Cell motility is stimulated with 50 μl of 10% fetal bovine serum (FBS) diluted in EMEM serum-free medium. […]

Another data set concerns MCF7 cells. Kind of data set: Motility assay, MCF7 cells. The following applies: 5 nM, FIG. 1C. The class given is cell-based.
Excerpt: as §1

In data set [4] the test system is endocrine resistant LY2 cells. The data set is described as follows: Motility assay, LY2 cells. The class given is cell-based. The following applies: 5 nM, FIG. 1C/1E.
Excerpt: as §1

[5] abbreviates: LetR cells in vivo, daily injection.

Take `CC[C@H](C)[C@H](NC(=O)[C@H](Cc1ccccc1)NC(=O)[C@H](CCCNC(=N)N)NC(=O)[C@@H](NC(=O)[C@H](CC(C)C)NC(=O)[C@H](CS)NC(=O)[C@@H](NC(=O)[C@H](Cc1ccc(O)cc1)NC(=O)[C@@H](NC(=O)[C@H](CC(=O)O)NC(=O)CNC(=O)[C@@H](N)CCCCN)C(C)C)[C@@H](C)CC)[C@@H](C)O)C(=O)NCC(=O)N[C@@H](CC(=O)O)C(=O)N[C@@H](CO)C(=O)N[C@@H](CCCCN)C(=O)N[C@H](C(=O)N[C@@H](CCSC)C(=O)N[C@@H](CCCCN)C(=O)N[C@@H](Cc1c[nH]c2ccccc12)C(=O)NCC(=O)NCC(=O)O)C(C)C` [LGI1 mimetic] (H-KGDVYICLTRFIGDSKVMKWGG-OH): in data set [1], the tolerability / toxicity result is given as “well tolerated with no toxicity observed”.

B1: LGI1: neuronal protein and known ADAM22 ligand LGI1 (SEQ ID NO: 1), GENBANK AAQ89244 (protein, listed as Homo sapiens)
chain: MESERSKRMGNACIPLKRIAYFLCLLSALLLTEGKKPAKPKCPAVCTCTKDNALCENARSIPRTVPPDVISLSFVRSGFTEISEGSFLFTPSLQLLLFTSNSFDVISDDAFIGLPHLEYLFIENNNIKSISRHTFRGLKSLIHLSLANNNLQTLPKDIFKGLDSLTNVDLRGNSFNCDCKLKWLVEWLGHTNATVEDIYCEGPPEYKKRKINSLSSKDFDCIITEFAKSQDLPYQSLSIDTFSYLNDEYVVIAQPFTGKCIFLEWDHVEKTFRNYDNITGTSTVVCKPIVIETQLYVIVAQLFGGSHIYKRDSFANKFIKIQDIEILKIRKPNDIETFKIENNWYFVVADSSKAGFTTIYKWNGNGFYSHQSLHAWYRDTDVEYLEIVRTPQTLRTPHLILSSSSQRPVIYQWNKATQLFTNQTDIPNMEDVYAVKHFSVKGDVYICLTRFIGDSKVMKWGGSSFQDIQRMPSRGSMVFQPLQINNYQYAILGSDYSFTQVYNWDAEKAKFVKFQELNVQAPRSFTHVSINKRNFLFASSFKGNTQIYKHVIVDLSA
modifications: (1)..(557) LGI1 protein
Take B1: the cellular differentiation result in the data set on LetR cells is reported as “restored cellular differentiation”. The “cell proliferation in vivo” value in data set [2] (setting [5]) was “inhibits”. Further, the metastasis in vivo result in data set [2] (setting [5]) is recorded as “inhibits”. Also, the tumour burden entry in data set [2] (xenograft model of endocrine resistance) was “significantly reduced tumour burden”. Moreover, the cellular migration entry in data set [3] is reported as “significantly reduced cellular migration”; in the data set with MCF7 cells, “no discernable effect”; in data set [4], “significantly reduced cellular migration”.
